Reference: patent US20220041725A1 (MacroGenics, published 2022)

Biological target: T1, HER-2 (UniProt P04626 23-652, limits assumed)
T1 construct: also called HER2/neu; erbB-2
Experiment: SPR (BIAcore 1000), HER-2 amine-coupled on chip, antibody injected at 6.25-200 nM

| Molecule | koff [s⁻¹] | kon [M⁻¹ s⁻¹] |
| --- | --- | --- |
| ch4D5 (antibody) | 6.3e-06 | 110000 |
| ch4D5-wild-type Fc (antibody, human IgG1, kappa, V domains shown, Chimeric IgG with wild-type human IgG1 Fc; also called ch4D5-FcWT (wild-type Fc); Chimeric 4D5 Antibody having a wild-type Fc) VH: QVQLQQSGPELVKPGASLKLSCTASGFNIKDTYIHWVKQRPEQGLEWIGRIYPTNGYTRYDPKFQDKATITADTSSNTAYLQVSRLTSEDTAVYYCSRWGGDGFYAMDYWGQGASVTVSS VL: DIVMTQSHKFMSTSVGDRVSITCKASQDVNTAVAWYQQKPGHSPKLLIYSASFRYTGVPDRFTGSRSGTDFTFTISSVQAEDLAVYYCQQHYTTPPTFGGGTKVEIKR | ~3.2e-07 | 170000 |
